Assay results as given in article PMC4880302.

Legend:
[1] = biological target: wild-type HMPV F protein (soluble, secreted, with C-terminal GCNt trimerization domain) (human metapneumovirus, B2 strain); assay: SPR; BiOptix 404pi; F proteins captured on NiHC1000m chip through their C-terminal His tag to 120 RU; Fab injected at 300 to 0.14 nM, 100 ul/min; 10 mM HEPES pH 7.2, 150 mM NaCl, 0.005% Tween 20, 50 uM EDTA; simple Langmuir model
[2] = biological target: wild-type HMPV F protein (soluble, secreted, with C-terminal GCNt trimerization domain) (human metapneumovirus, B2 strain); assay: SEC; gel filtration of the purified F proteins alone (Superdex-200, 25 mM sodium phosphate pH 7.4, 100 mM NaCl)
[3] = biological target: DS-7 Fab (anti-HMPV F neutralizing antibody); assay: SPR; Bio-Rad ProteOn XPR36; biotinylated antibodies (Fabs) immobilised on NLC chip at 80-300 RU; unheated HMPV F injected at 500, 166.7, 55.5, 18.5, 6.2, 0 nM, 100 ul/min; 20 mM NaPO4 pH 7.4, 100 mM NaCl, 10 mM imidazole, 0.005% Tween 20; bivalent analyte model
[4] = biological target: wild-type HMPV F protein (soluble, secreted, with C-terminal GCNt trimerization domain) (human metapneumovirus, B2 strain); assay: negative-stain EM; purified F proteins on carbon-coated copper grids, 2% uranyl formate; unheated and heated to 50°C
[5] = biological target: DS-7 Fab (anti-HMPV F neutralizing antibody); assay: SPR; as a1 (ProteOn, Fab immobilised, F injected, bivalent analyte model), but HMPV F proteins heated to 50°C for 30 minutes (post-fusion form)

Row | Substance | Kd [1] | koff [1] | kon [1] | t1/2 [1] | stoichiometry N [2] | Kd [3] | koff [3] | kon [3] | t1/2 [3] | stoichiometry N [4] | Kd [5] | koff [5] | kon [5] | t1/2 [5]
1 | DS-7 Fab (anti-HMPV F neutralizing antibody) | 300 pM | 0.000197 s⁻¹ | 684000 M⁻¹ s⁻¹ | 59 min |  |  |  |  |  |  |  |  |  | 
2 | wild-type HMPV F protein (soluble, secreted, with C-terminal GCNt trimerization domain) (natural protein) |  |  |  |  | 3 | 830 pM | 0.00012 s⁻¹ | 147000 M⁻¹ s⁻¹ | 96 min | 3 | 2800 pM | 0.000258 s⁻¹ | 95700 M⁻¹ s⁻¹ | 45 min
